Molecular target: cnkr1_human CNKSR1 (UniProt Q969H4)
Sequence (Q969H4 whole entry): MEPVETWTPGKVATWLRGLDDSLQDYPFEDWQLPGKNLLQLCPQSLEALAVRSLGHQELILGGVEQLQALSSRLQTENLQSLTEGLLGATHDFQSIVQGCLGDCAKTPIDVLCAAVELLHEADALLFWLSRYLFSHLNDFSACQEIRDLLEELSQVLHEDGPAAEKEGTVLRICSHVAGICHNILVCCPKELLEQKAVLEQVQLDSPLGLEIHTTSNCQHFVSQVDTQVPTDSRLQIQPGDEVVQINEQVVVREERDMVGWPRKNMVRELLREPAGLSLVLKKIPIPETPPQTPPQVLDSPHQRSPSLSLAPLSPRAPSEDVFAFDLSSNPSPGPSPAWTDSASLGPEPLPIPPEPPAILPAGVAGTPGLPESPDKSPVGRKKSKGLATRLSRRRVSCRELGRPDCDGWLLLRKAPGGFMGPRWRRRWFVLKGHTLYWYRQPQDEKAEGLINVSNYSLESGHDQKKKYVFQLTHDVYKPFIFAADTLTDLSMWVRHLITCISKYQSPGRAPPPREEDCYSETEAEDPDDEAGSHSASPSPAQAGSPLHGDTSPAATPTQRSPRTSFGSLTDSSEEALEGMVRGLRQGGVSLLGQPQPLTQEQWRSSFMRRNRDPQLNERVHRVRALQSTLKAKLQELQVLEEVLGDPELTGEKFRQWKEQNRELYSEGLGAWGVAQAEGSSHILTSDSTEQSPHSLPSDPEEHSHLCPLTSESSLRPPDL

Rho-related GTP-binding protein RhoC (Homo sapiens), P08134 G14V
effect of a mutation on the interaction: increasing interaction

Source: IntAct's records for PubMed 15670823
